From the Human Domainome abundance scans (Beltran et al. 2025)
± gives the uncertainty stated by the source.

B1: Zinc finger homeobox protein 3, residues 2244 to 2299; numbered along this chain, Q15911 (parent)
chain: SSRTRFTDYQLRVLQDFFDANAYPKDDEFEQLSNLLNLPTRVIVVWFQNARQKARK
B2: Probable E3 ubiquitin-protein ligase MID2, residues 191 to 235; numbered along this chain, Q9UJV3 (parent)
chain: RGITCLDHENEKVNMYCVSDDQLICALCKLVGRHRDHQVASLNDR

Variants of: B1
Test: abundance fitness (aPCA) (normalised: wild type 0, dead -1); higher = more abundant; growth selection in yeast, the domain comes from the species named
Conditions: Homo sapiens

In order of rising abundance fitness:
1. S1W  -0.939 ± 0.21
2. T4A  -0.883 ± 0.17
3. T4K  -0.661 ± 0.15
4. T4W  -0.656 ± 0.11
5. S1P  -0.636 ± 0.36
6. T4V  -0.634 ± 0.098
7. T4C  -0.632 ± 0.17
8. T4G  -0.394 ± 0.08
9. T4R  -0.388 ± 0.082
10. S1F  -0.357 ± 0.41
11. T4E  -0.357 ± 0.15
12. S2A  -0.353 ± 0.12
13. S2R  -0.299 ± 0.11
14. S1M  -0.277 ± 0.29
15. S2W  -0.255 ± 0.14
16. S2F  -0.214 ± 0.17
17. T4Y  -0.198 ± 0.28
18. S2K  -0.194 ± 0.18
19. S1L  -0.179 ± 0.16
20. S1V  -0.158 ± 0.2
21. T4P  -0.154 ± 0.12
22. S2C  -0.118 ± 0.17
23. T4L  -0.116 ± 0.11
24. S1R  -0.097 ± 0.38
25. S2Q  -0.093 ± 0.27
26. T4Q  -0.08 ± 0.16
27. T4H  -0.072 ± 0.19
28. S1A  -0.047 ± 0.15
29. S2H  -0.043 ± 0.22
30. S2G  -0.006 ± 0.093
31. S1T  0.003 ± 0.27
32. S2N  0.007 ± 0.16
33. T4S  0.024 ± 0.093
34. S2L  0.026 ± 0.12
35. T4F  0.03 ± 0.17
36. T4I  0.032 ± 0.19
37. R3E  0.038 ± 0.11
38. S2V  0.042 ± 0.1
39. S1C  0.079 ± 0.21
40. R3W  0.094 ± 0.11
41. S2Y  0.097 ± 0.15
42. R3I  0.108 ± 0.19
43. T4D  0.117 ± 0.21
44. S1D  0.137 ± 0.34
45. S1N  0.158 ± 0.3
46. R3P  0.17 ± 0.13
47. S1E  0.181 ± 0.42
48. S2E  0.182 ± 0.15
49. R5G  0.19 ± 0.067
50. R5L  0.197 ± 0.072
51. S2D  0.21 ± 0.11
52. T4N  0.211 ± 0.22
53. R5A  0.213 ± 0.071
54. S2T  0.214 ± 0.12
55. R5H  0.218 ± 0.12
56. R5F  0.234 ± 0.1
57. S1I  0.252 ± 0.3
58. S1G  0.256 ± 0.15
59. R3G  0.281 ± 0.068
60. R5K  0.29 ± 0.11
61. R3Y  0.301 ± 0.19
62. T4M  0.304 ± 0.13
63. R3M  0.308 ± 0.13
64. S2M  0.321 ± 0.18
65. R5E  0.321 ± 0.096
66. R5C  0.323 ± 0.081
67. R5I  0.323 ± 0.092
68. R3H  0.368 ± 0.17
69. R3S  0.386 ± 0.11
70. R3F  0.387 ± 0.18
71. R3A  0.388 ± 0.087
72. R3V  0.392 ± 0.089
73. S2I  0.393 ± 0.2
74. R3T  0.4 ± 0.13
75. R5D  0.423 ± 0.084
76. R3N  0.43 ± 0.17
77. R3L  0.439 ± 0.095
78. R3C  0.467 ± 0.13
79. R5M  0.478 ± 0.11
80. R3D  0.505 ± 0.13

Variants of: B2
Test: as above
Conditions: Homo sapiens

In order of rising abundance fitness:
1. S41Y  -0.502 ± 0.45
2. S41I  -0.481 ± 0.16
3. D44W  -0.472 ± 0.13
4. S41W  -0.458 ± 0.1
5. D44C  -0.452 ± 0.17
6. D44L  -0.427 ± 0.1
7. D44F  -0.422 ± 0.12
8. N43W  -0.405 ± 0.088
9. S41F  -0.385 ± 0.14
10. L42P  -0.363 ± 0.21
11. S41V  -0.298 ± 0.061
12. D44Y  -0.285 ± 0.29
13. N43I  -0.275 ± 0.2
14. R45L  -0.253 ± 0.088
15. N43M  -0.252 ± 0.19
16. D44Q  -0.234 ± 0.33
17. S41M  -0.222 ± 0.12
18. D44V  -0.211 ± 0.064
19. R45M  -0.201 ± 0.2
20. A40Y  -0.2 ± 0.23
21. L42W  -0.198 ± 0.07
22. D44M  -0.187 ± 0.17
23. D44K  -0.175 ± 0.083
24. R45W  -0.164 ± 0.082
25. S41L  -0.157 ± 0.068
26. A40W  -0.155 ± 0.07
27. N43R  -0.154 ± 0.054
28. D44A  -0.152 ± 0.062
29. S41H  -0.135 ± 0.14
30. L42Q  -0.134 ± 0.078
31. L42F  -0.133 ± 0.16
32. L42Y  -0.127 ± 0.11
33. N43L  -0.126 ± 0.067
34. D44T  -0.122 ± 0.11
35. R45V  -0.105 ± 0.084
36. S41K  -0.102 ± 0.074
37. N43C  -0.097 ± 0.1
38. L42T  -0.096 ± 0.086
39. L42R  -0.095 ± 0.06
40. R45D  -0.087 ± 0.14
41. S41A  -0.08 ± 0.063
42. D44G  -0.075 ± 0.057
43. L42G  -0.071 ± 0.055
44. S41C  -0.071 ± 0.085
45. A40T  -0.068 ± 0.12
46. D44S  -0.067 ± 0.074
47. D44P  -0.061 ± 0.13
48. L42K  -0.054 ± 0.073
49. L42D  -0.046 ± 0.1
50. N43Q  -0.043 ± 0.068
51. N43V  -0.042 ± 0.086
52. R45T  -0.04 ± 0.1
53. S41R  -0.039 ± 0.053
54. N43D  -0.036 ± 0.12
55. R45I  -0.033 ± 0.13
56. L42M  -0.031 ± 0.06
57. N43S  -0.022 ± 0.057
58. S41G  -0.021 ± 0.055
59. L42V  -0.016 ± 0.052
60. N43H  -0.016 ± 0.079
61. N43G  -0.011 ± 0.056
62. S41T  -0.001 ± 0.062
63. D44E  0.003 ± 0.14
64. N43T  0.008 ± 0.087
65. R45C  0.018 ± 0.072
66. R45K  0.025 ± 0.11
67. R45Q  0.033 ± 0.06
68. R45P  0.041 ± 0.096
69. L42N  0.045 ± 0.13
70. L42S  0.046 ± 0.06
71. S41P  0.061 ± 0.087
72. N43P  0.062 ± 0.064
73. A40S  0.063 ± 0.057
74. R45S  0.084 ± 0.076
75. S41D  0.087 ± 0.074
76. L42E  0.091 ± 0.14
77. S41N  0.1 ± 0.35
78. N43A  0.1 ± 0.059
79. L42A  0.118 ± 0.056
80. R45G  0.15 ± 0.067
81. R45F  0.151 ± 0.23
82. N43K  0.164 ± 0.071
83. R45A  0.178 ± 0.12
84. N43E  0.192 ± 0.065
85. R45H  0.256 ± 0.29
86. L42C  0.269 ± 0.14
87. R45E  0.276 ± 0.079
